Reference: patent US5684129

Assays:
[1] = target: Type 1 human interferon receptor complex (human) (UniProt P17181)
[2] = target: Type 1 human interferon receptor complex (human) (UniProt P17181); experiment: 125I-ligand binding to T98G cells at +4° C., Scatchard analysis, high affinity component

| antiviral specific activity (EMCV on T98G cells) [1] [U/mg protein] | Kd [2] [pM] | Substance |
| --- | --- | --- |
| 7.1e+06 |  | IFN-alpha1 Nδ4 (ligand) |
| 3e+09 | 7.7 | IFN-alphaCon1 (ligand) |
